Test results published in PMC6712278, “Mouse Gut Microbiome-Encoded β-Glucuronidases Identified Using Metagenome Analysis Guided by Protein Structure” (mSystems, 2019).

Tests used:
[1] = system: T1, BoGUS L2; experiment: p-nitrophenol release, absorbance […] nm, Michaelis-Menten fit; format: biochemical, Bacteroides ovatus; details: 50 mM HEPES, 50 mM NaCl, pH 6.5, 37°C
T1 construct: gene GUS; GH2, loop 2 class

[2] = system: O=C(O)[C@H]1O[C@@H](Oc2ccc([N+](=O)[O-])cc2)[C@H](O)[C@@H](O)[C@@H]1O; experiment: purified protein; details: 37°C, at the enzyme's optimal pH (not given)
[3] = substrate: O=C(O)[C@H]1O[C@@H](Oc2ccc([N+](=O)[O-])cc2)[C@H](O)[C@@H](O)[C@@H]1O; experiment: purified protein; format: biochemical, Bacteroides uniformis; details: 37°C, at the enzyme's optimal pH (not given)

O=C(O)[C@H]1O[C@@H](Oc2ccc([N+](=O)[O-])cc2)[C@H](O)[C@@H](O)[C@@H]1O [PNPG, p-nitrophenyl-glucuronide]
Km [1]: 930 ± 70 µM

BfGUS mL1 (Bacteroides fragilis NCTC 9343)
Km [2]: 460 ± 60 µM
kcat [2]: 23 ± 1 s⁻¹

B1: BuGUS L2 (Bacteroides uniformis str. 3978 T3 ii) (protein)
chain: QRQTQTINDSWKFLKGECTAAADSAFDDSKWTSIHLPHTWNTDAYTEKDYYRGTGWYRRQLTLPQGWKEKQIILRLDAAGKSATIYINGKNVGEHAGGYTACSFNITPFLSFDTPNTLAVCVDNARQDIAPISGDFTFFGGIYRDVWLTAVPNQHFNLTNHGSDGLFISTPQVSEEQATLSIRGEVKNDAPEKATLELTHTIYRPDGTLLQTLKKNIQLKAGETYAFSNEATPVLKPELWTPETPRLYRVETTLRNRKTKTLLDQSNHYTAFRWFRFDGDEGFFLNGKPYKLRGICRHQDQKPIGPALTDEMHRRDFLLMKEMGANFIRISHYPQDDALLEMCDKLGMLAWEEIPIIDIVPNTPGYGDNCERNLREMIRQHYNHPSIITWGYMNEILLVTQRKYKTEAELKPVLERTLALANRLERVLKEEDSTRISTMAFHGSNSYNETGLSKITDIVGWNLYQGWYGGDLTGFEKFLAQQHQNHPTHPMIVSEYGAGSDKRLHSLHPRAFDFSIEYQQKYLEHYLPVLEDTPYICGGTHWNFIDFSSALRDESMPRINNKGLVYADRTPKDVYHYYQAAWRKDIPVLHIASRDWTDRAGVQQGNAPVYLPVKIYTNLSEVELFIDGISLGKQKTENYTATFEVPFSNRNPFLFAQGNYQGKTVQDGLRINFTPIPACLDANNLKGLELAVNVGSQCFFTSDESQLTWLPDQPYAAGSWGYIGGKEGTAQTEIQNTADGPLFQTLRNEIEGYRFDAPQGVYEIELLFTDIFRRNAGIAYQLDRNGQQENRESTFGISINGEVVEESLSPCKESGYFRALRKKYYITNDKEYIDIRFHSTSGTCFLNGIKLRNIY
notes: GH2, loop 2 class
Km [3]: 520 ± 60 µM
kcat [3]: 24 ± 1 s⁻¹
